Test results taken from WO2007059300A2 (dated 2007).

B1: fully human anti-ALK IgG D5 (antibody, V domains shown)
VH: EVQLLESGGGLVQPGGSLRLSCAASGFTFSNYRMSWVRQAPGKGLEWVSWIYSSGGMTTYADSVKGRFTISRDNSKNTLYLQMNSLRAEDTAVYYCARERSKNYDTSVPVGFDIWGQGTMVTVSS
VL: DIQMTQSPATLSLSPGERATLSCRASQSISSFLAWYQHKPGQAPRLLIYDASNRATGIPARFSGSGSGTDFTLTISSLEPEDFAVYYCQQRTTWPPALTFGGGTKVEIK
notes: Full length fully human IgG
B2: fully human anti-ALK IgG B8 (antibody, V domains shown)
VH: EVQLLESGGGLVQPGGSLRLSCAASGFTFSQYVMAWVRQAPGKGLEWVSSIWSSGGMTWYADSVKGRFTISRDNSKNTLYLQMNSLRAEDTAVYYCAKHGVLRYFDWSMPFDFWGQGTLVTVSS
VL: DIQMTQSPPSLSASVGDRVTITCRTSQNISSYLNWYQQKPGKAPKLLIYAASSLQSGVPSRFSGSGSGTDFTLTIRSLQPEDFAAYYCQQSYTSLTFGGGTKVEIK
notes: Full length fully human IgG
B3: fully human anti-ALK IgG C1 (antibody, V domains shown)
VH: EVQLLESGGGLVQPGGSLRLSCAASGFTFSMYPMDWVRQAPGKGLEWVSRISSSGGTTEYADSVKGRFTISRDNSKNTLYLQMNSLRAEDTAVYYCTRRFCISGVCPFEYWGQGTLVTVSS
VL: QSALTQPPSASGTPGQRVTISCSGSSSNIGSNTVNWYQQLPGTAPKLLIYSNNQRPSGVPDRFSGSKSGTSASLAISGLQSEDEADYYCQSYDNSLTNFVFGSGTKVTVLG
notes: Full length fully human IgG; also called Cl
B4: fully human anti-ALK IgG E5 (antibody, V domains shown)
VH: EVQLLESGGGLVQPGGSLRLSCAASGFTFSLYPMMWVRQAPGKGLEWVSVISSSGGFTFYADSVKGRFTISRDNSKNTLYLQMNSLRAEDTAVYYCARSLAYIFDAFDIWGQGTMVTVSS
VL: DIQMTQSPGTLSLSPGERATLYCRASQSLYSSYLAWYQQRPGQAPRLLIYDTSSRATGIPDRFSGSGSGTDFTLTISRLEPEDFAVYYCQQYGTSLRTFGQGTKVEIK
notes: Full length fully human IgG
B5: fully human anti-ALK IgG B6 (antibody, V domains shown)
VH: EVQLLESGGGLVQPGGSLRLSCAASGFTFSFYTMFWVRQAPGKGLEWVSSIRPSGGLTGYADSVKGRFTISRDNSKNTLYLQMNSLRAEDTAVYYCARGMQRGLDYWGQGTLVTVSS
VL: QSALSQPPSASGTPGQRVSISCSGSSSNIGSYYVYWYQHLPGTAPKLLIYRNNQRPSGVPDRFSGSKSGTSASLAISGLRSEDESDYYCAAWDDRLSAWVFGGGTKLTVLG
notes: Full length fully human IgG
B6: fully human anti-ALK IgG D10 (antibody, V domains shown)
VH: EVQLLESGGGLVQPGGSLRLSCAASGFTFSKYGMHWVRQAPGKGLEWVSYIVPSGGYTIYADSVKGRFTISRDNSKNTLYLQMNSLRAEDTAMYYCAKLAGDWFDPWGQGTLVTVSS
VL: DIQMTQSPLSLPVTLGQPASISCRSSQSLVHSNGNTYLSWFHQRPGQSPRRLIHKISDRVSGVPDRFSGSGSGTDFTLKISRLEAEDVGIYYCMQGTHWPPTFGQGTKVEIK
notes: Full length fully human IgG; also called DlO; DlO antibody
B7: fully human anti-ALK IgG A7 (antibody, V domains shown)
VH: EVQLLESGGGLVQPGGSLRLSCAASGFTFSNYIMSWVRQAPGKGLEWVSWISSSGGFTQYADSVKGRFTISRDNSKNTLYLQMNSLRAEDTAVYYCARVIAAAGAFDYWGQGTLVTVSS
VL: DIQMTQSPSSVAASVGDRVTITCRASQDISTWLAWYQQKPGKAPKLLLSGASRLERGVPSRFSGSGSGTDFTLTIRGLQSEDFATYYCQQARSFPPTFGQGTRVEMR
notes: Full length fully human IgG
B8: fully human anti-ALK IgG B2 (antibody, V domains shown)
VH: EVQLLESGGGLVQPGGSLRLSCAASGFTFSHYMMEWVRQAPGKGLEWVSGIVPSGGLTTYADSVKGRFTISRDNSKNTLYLQMNSLRAEDTAVYYCATITMGAFDIWGQGTMVTVSS
VL: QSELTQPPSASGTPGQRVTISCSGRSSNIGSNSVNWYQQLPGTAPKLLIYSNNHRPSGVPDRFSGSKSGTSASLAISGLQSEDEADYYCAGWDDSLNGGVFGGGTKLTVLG
notes: Full length fully human IgG
B9: fully human anti-ALK IgG E1 (antibody, V domains shown)
VH: EVQLLESGGGLVQPGGSLRLSCAASGFTFSWYSMWWVRQAPGKGLEWVSSIRPSGGKTTYADSVKGRFTISRDNSKNTLYLQMNSLRAEDTAVYYCAKGLDPNGIAAAGGEGYWGQGTLVTVSS
VL: QSALTQPASVSGSPGQSITITCSGDALPKQFGYWYQQKPGQAPILVIYKDTERPSGIPERFSGSSSGTIVTLTISGVRAEDEADYYCQSADSSGNSVVFGGGTKLTVLG
notes: Full length fully human IgG; also called El
B10: fully human anti-ALK IgG A2 (antibody, V domains shown)
VH: EVQLLESGGGLVQPGGSLRLSCAASGFTFSGYTMYWVRQAPGKGLEWVSSISPSGGITFYADSVKGRFTISRDNSKNTLYLQMNSLRAEDTAVYYCARGRLFWSGYYTNRLGYAFDIWGQGTMVTVSS
VL: DIQMTQSPSSLSASVGDRVTITCRASQSIRSYLNWYQQKPGKAPKLLIYAASNLQSGVPSRFSGSGSGTDFTLSISSLQPEDFATYYCQQSYSTLWTFGQGTKVEIK
notes: Full length fully human IgG

Target: T1, ALK-ECD-myc/his tag protein (human, UniProt Q9UM73 19-1038)
T1 construct: Expressed in 293/293F cells and purified from conditioned medium; biotin labelled for the soluble panning; also called recombinant ALK-ECD-myc/his tag; ALK-ECD protein; not shown: Myc/His tag
T1 sequence (Q9UM73 other isoform, or with tags, fused parts or gaps): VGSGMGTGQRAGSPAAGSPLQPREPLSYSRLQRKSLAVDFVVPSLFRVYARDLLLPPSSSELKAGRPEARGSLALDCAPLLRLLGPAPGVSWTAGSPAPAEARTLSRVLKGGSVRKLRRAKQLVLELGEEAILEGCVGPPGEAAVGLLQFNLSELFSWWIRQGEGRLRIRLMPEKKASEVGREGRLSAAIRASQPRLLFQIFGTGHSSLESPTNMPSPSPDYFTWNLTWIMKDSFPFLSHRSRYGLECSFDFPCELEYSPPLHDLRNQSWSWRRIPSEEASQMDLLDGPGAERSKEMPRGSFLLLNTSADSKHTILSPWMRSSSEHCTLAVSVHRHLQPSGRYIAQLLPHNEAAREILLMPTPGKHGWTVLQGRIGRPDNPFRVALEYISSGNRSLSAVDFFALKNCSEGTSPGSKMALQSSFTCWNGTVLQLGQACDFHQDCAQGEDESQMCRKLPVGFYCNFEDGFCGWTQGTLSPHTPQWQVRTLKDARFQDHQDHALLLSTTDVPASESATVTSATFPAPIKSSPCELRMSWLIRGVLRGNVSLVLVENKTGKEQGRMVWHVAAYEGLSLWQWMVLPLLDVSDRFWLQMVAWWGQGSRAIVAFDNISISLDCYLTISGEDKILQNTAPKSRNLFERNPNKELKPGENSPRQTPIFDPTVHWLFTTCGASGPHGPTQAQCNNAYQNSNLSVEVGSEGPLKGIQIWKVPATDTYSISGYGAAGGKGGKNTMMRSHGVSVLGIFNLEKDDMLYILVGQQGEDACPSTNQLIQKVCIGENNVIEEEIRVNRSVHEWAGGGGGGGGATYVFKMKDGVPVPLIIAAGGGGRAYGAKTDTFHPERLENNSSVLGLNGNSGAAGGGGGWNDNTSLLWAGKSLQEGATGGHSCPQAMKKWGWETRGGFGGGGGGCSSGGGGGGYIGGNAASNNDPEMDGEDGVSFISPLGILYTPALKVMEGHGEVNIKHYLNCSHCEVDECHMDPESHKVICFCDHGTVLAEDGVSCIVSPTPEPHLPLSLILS
Test: ELISA, ALK-ECD-myc/his coated at 10 μg/mL, anti-human IgG-HRP

Binding result, binds:
B1, B2, B3, B4, B5, B6, B7, B8, B9, B10

Target: T2, ALK expressed on the cell surface (human, UniProt Q9UM73 19-1620)
T2 construct: also called ALK protein expressed on the cell surface; ALK-expressing cells
T2 sequence (Q9UM73 other isoform, or with tags, fused parts or gaps limits assumed): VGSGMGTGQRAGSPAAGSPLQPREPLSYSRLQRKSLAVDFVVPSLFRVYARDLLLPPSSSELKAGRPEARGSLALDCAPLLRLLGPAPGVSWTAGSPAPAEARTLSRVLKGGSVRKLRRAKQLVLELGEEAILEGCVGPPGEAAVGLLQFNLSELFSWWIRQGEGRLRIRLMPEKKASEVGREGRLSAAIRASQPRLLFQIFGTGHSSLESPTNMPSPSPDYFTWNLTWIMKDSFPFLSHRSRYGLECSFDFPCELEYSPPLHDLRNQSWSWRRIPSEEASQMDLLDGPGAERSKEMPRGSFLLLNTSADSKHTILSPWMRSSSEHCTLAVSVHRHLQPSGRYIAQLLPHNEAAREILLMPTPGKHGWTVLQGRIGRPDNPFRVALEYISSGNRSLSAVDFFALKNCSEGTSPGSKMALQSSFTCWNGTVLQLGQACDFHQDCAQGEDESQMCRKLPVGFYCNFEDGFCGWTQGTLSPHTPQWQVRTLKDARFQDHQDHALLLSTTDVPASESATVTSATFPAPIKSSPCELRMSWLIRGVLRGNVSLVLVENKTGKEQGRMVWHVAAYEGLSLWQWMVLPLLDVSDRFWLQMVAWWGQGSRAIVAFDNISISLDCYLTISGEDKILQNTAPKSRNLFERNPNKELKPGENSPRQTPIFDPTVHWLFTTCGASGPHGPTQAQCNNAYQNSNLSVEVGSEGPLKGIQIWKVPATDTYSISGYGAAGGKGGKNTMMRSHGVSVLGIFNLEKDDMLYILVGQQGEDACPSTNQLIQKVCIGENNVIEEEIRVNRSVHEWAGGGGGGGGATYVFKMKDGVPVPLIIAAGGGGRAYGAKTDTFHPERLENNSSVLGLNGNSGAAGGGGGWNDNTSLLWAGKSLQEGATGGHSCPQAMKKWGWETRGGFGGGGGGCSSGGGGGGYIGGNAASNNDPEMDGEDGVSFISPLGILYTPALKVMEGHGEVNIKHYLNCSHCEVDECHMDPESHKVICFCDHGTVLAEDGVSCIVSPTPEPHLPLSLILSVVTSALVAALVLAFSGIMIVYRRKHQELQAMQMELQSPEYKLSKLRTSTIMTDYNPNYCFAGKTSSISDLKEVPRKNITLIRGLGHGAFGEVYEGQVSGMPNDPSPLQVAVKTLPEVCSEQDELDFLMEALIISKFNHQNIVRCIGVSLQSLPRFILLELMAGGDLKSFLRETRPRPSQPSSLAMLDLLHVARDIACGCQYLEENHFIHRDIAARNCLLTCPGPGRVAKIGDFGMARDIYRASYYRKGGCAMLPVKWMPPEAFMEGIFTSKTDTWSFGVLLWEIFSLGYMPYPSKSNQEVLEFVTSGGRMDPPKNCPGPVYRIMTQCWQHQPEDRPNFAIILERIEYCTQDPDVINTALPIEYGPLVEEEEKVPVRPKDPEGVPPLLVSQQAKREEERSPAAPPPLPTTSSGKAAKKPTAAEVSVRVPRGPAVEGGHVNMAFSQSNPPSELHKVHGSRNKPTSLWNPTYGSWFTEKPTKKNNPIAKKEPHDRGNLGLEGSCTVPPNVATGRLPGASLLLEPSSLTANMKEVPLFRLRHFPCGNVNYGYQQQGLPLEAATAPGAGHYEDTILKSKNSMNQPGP
Test: FACS on ALK positive cells, 1 to 20 μg/mL IgG, FITC anti-human IgG

Binding result, binds:
B6
